Key:
[1] = system: csf1r-EGFP (MacGreen) mice; assay: Fc-CSF-1 injected subcutaneously into csf1r-EGFP mice on 4 days, sacrificed on the 5th day; format: in vivo, mouse
Description: Mice were injected with Fc-CSF-1 subcutaneously on each of 4 days and sacrificed on the 5th day. The mice were csf1r-EGFP (MacGreen) mice on the C57BI/6 background. Tissue processing and immunohistochemistry were carried out as described in (Alikhan et al Am J. Pathol. 179, 1243-1256, 2011 and Macdonald et al Blood. 116, 3955-3963, 2010). A comparison of the effect of recombinant pig CSF-1 or Fc-CSF-1 on the proliferation of mouse bone marrow cells or the Ba/F3 CS1R reporter cell line using the assay described in Gow et al Cytokine.

C57BI6 male mice = assay: Hepatic phagocytic ability after paracetamol intoxication (gene analysis, bead clearance assay, ex vivo imaging); format: in vivo, mouse
Description: C57BI6 male mice (8-10 weeks) underwent either partial hepatectomy (⅔ resection) or paracetamol intoxication (350 mg/kg intraperitoneal following overnight fast). CSF1-Fc was administered as previous (0.75 mg/kg). Gene analysis was performed using Qiagen Quantitect Primers (MSR1 and MARCO) and related to GAPDH level for each sample. […] 0.1 mls of 5000 IU/ml heparin solution was infused to prevent blockage of the catheter. 100 μl of red fluorescent bead solution (1:5 Latex beads 1.0 μm, fluorescent red, SIGMA-ALDRICH®) was infused through the cannula (1:2 solution for assay following paracetamol injury). 20 mcl of blood was removed from the cannula every two minutes starting from 1 minute post injection for 15 minutes. Blood was immediately fixed with 300 μl FACS-Lysing solution (BD Biosceinces). After 15 minutes mice were perfused with 15 mls 0.9% saline through the IVC cannula after dividing the portal vein for outflow. Organs were then removed (Liver, spleen, lungs, kidney, brain) and imaged with a Kodak In-Vivo Multispectral FX image station (Excitation: 550 nm; Emission: 600 nm; Exposure 1 sec; f-stop 2.8). Subsequently blood samples were analysed using a LSR-Fortessa™ flow cytometer (BD Biosciences) with fluorescent beads detected on the blue channel (B695/40) by a 1 minute sample collection on low flow rate setting.

male C57BI6 mice = assay: Murine models of acute and acute-on-chronic liver injury (all three injury models); format: in vivo
Description: Forty-eight male C57BI6 mice aged 10-12 weeks underwent either 2/3 partial hepatectomy, paracetamol intoxication or chronic liver injury plus 2/3 partial hepatectomy. 2/3 partial hepatectomy was performed by ligating the left lobe and left and right median lobes. Paracetamol intoxication was performed by intraperitoneal administration of 350 mg/kg paracetamol dissolved in phosphate buffered saline (PBS). Chronic liver injury plus 2/3 partial hepatectomy was performed by eight weeks intraperitoneal carbon tetrachloride administration 1 mcl/g twice weekly dissolved in olive oil followed by ⅔ partial hepatectomy as described above. […] Control mice (n=8 per injury model) received subcutaneous PBS of appropriate volume. All mice were culled on day 4 following injury (partial hepatectomy or paracetamol intoxication).
Following a midline laparotomy the liver was excised and weighed. Liver weight to body weight ratio was calculated and expressed as a percentage. Livers were fixed in 4% formalin overnight then transferred to 70% ethanol. Livers were then embedded in paraffin blocks and 4 μm sections cut. Immunohistochemistry for Ki67 (a marker of cellular proliferation expressed throughout the cell cycle) was performed following heat mediated antigen retrieval in Tris/EDTA solution at pH9. Hepatocyte proliferation was quantified by counting ki67 positive hepatocytes in 20 high powered fields (400×) per animal and the mean calculated.
The effects of Fc-CSF1 on liver regeneration in murine models of acute liver injury (partial hepatectomy; paracetamol intoxication) and acute-on-chronic liver injury (chronic liver injury plus partial hepatectomy) were studieD. The treatment group (n=8 per injury model) received 0.5 mcg/g Fc-CSF1 administered subcutaneously immediately following either partial hepatectomy or paracetamol intoxication and subsequently every 24 hours for three further doses. Control mice (n=8 per injury model) received subcutaneous PBS of appropriate volume. […]

mouse bone marrow cells = assay: Proliferation of mouse bone marrow cells; format: cell-based; conditions: data not shown
Description: Stable Ba/F3 cells expressing porcine CSF-1R were maintained in culture with complete RPMI supplemented with either 10^4 Units/ml rh-CSF-1 or 10% IL-3 conditioned medium prior to MTT assay. 2×10^4 cells/well (Ba/F3 cells and Ba/F3 transfectants), or 5×10^4 cells/well (pig BMM) of a 96 well plate were plated in triplicate or quadruplicate and appropriate treatment (serial dilutions of rh-CSF-1 or porcine Fc CSF-1 were added to make a total volume of 100 μl per well. Cells were incubated for 48 hours at 37° C. with 5% CO2. For Ba/F3 cells, 10 μl of MTT (Sigma Aldrich M5655) stock solution (5 mg/ml) was added directly to each well to achieve a final concentration of 0.5 mg/ml and incubated at 37° C. for 3 hours prior to solubilisation overnight. For adherent mouse BMM cells, culture medium was replaced with 50 μl of 1 mg/ml MTT solution and incubated for 1 hour at 37° C. MTT solution was removed and tetrazolium salt solubilised with 100 μl of solubilisation agent (0.1M HCL, 10% Triton x-100 and isopropanol) followed by incubation at 37° C. with 5% CO2 for 10 minutes. Plates were read at 570 nm with reference wavelength of 405 nm.
Mice were injected with Fc-CSF-1 subcutaneously on each of 4 days and sacrificed on the 5th day. The mice were csf1r-EGFP (MacGreen) mice on the C57BI/6 background. […]

[2] = 1 mg/kg, whole group or segregated for male or female
[3] = day 2 following paracetamol intoxication
[4] = all injury models, vs PBS control

B1: Fc-CSF-1: active fragment of porcine CSF-1 (SEQ ID NO:1) linked to the hinge-CH3 region of porcine IgG1a (SEQ ID NO:2) (protein, listed as Sus scrofa)
chain: SENCSHMIGDGHLKVLQQLIDSQMETSCQIAFEFVDQEQLTDPVCYLKKAFLQVQDILDETMRFRDNTPNANVIVQLQELSLRLNSCFTKDYEEQDKACVRTFYETPLQLLEKIKNVFNETKNLLKKDWNIFSKNCNNSFAKCSSQHERQPEGRGTKTKPPCPICPGCEVAGPSVFIFPPKPKDTLMISQTPEVTCVVVDVSKEHAEVQFSWYVDGVEVHTAETRPKEEQFNSTYRVVSVLPIQHQDWLKGKEFKCKVNNVDLPAPITRTISKAIGQSREPQVYTLPPPAEELSRSKVTVTCLVIGFYPPDIHVEWKSNGQPEPEGNYRTTPPQQDVDGTFFLYSKLAVDKARWDHGETFECAVMHEALHNHYTQKSISKTQGK
body weight, dose response curve ([1]; 0.1 mg/kg): detectable activity
total body weight ([1]; 1 mg/kg): clearly increased total body weight
total liver weight ([1]; 1 mg/kg): significantly increased
weight of the spleen ([1]; 1 mg/kg): almost doubled
weight of the kidney [1, 2]: no effect
weight of the lung [1, 2]: no effect
segmented neutrophil counts ([1]; blood): increases
total lymphocytes ([1]; blood): no effect
total blood monocyte count ([1]; blood, both sexes): elevates
white blood cell count ([1]; blood, both sexes): elevates
bone resorbing osteoclasts in bone ([1]; growth plate, zone of resorption and shaft, data not shown): increase
increase in abundance of macrophage-specific genes (csf1r, emr1 (F4/80)) ([1]; liver, Affymetrix microarrays): 4-8 fold
induction of classical inflammatory genes such as TNF-a, IL-6 or IL-1 ([1]; liver, Affymetrix microarrays): no evidence of induction
cell proliferation in liver, PCNA immunostaining ([1]; liver, proliferating cells identified as hepatocytes): extensive cell proliferation
macrophage numbers in liver, F4/80 immunostaining ([1]; liver, vs PBS control): large increase in macrophage numbers
numbers of macrophages in the spleen, csf1r-EGFP reporter fluorescence ([1]; spleen, treated vs control): greatly increased fluorescence
macrophage numbers and F4/80 intensity in spleen, immunostaining ([1]; spleen, vs PBS control): large increase in macrophage numbers and also intensity of F4/80
MARCO gene expression, whole liver (C57BI6 male mice; [3]): upregulation
MSR1 (macrophage scavenger receptor 1) gene expression, whole liver (C57BI6 male mice; [3]): upregulation
clearance of latex microbeads from the circulation (C57BI6 male mice; paracetamol model): did not notice enhanced clearance
hepatic fluorescence, ex vivo imaging (C57BI6 male mice; paracetamol model): significant increase
hepatic weights (male C57BI6 mice; [4]): growth promoting effect
hepatocyte proliferation (male C57BI6 mice; [4]): growth promoting effect
tolerability of interventions and treatments (male C57BI6 mice; subcutaneously immediately after injury, then every 24 hours for three further doses): well tolerated
biological activity (proliferation) compared with recombinant pig CSF-1 (mouse bone marrow cells): no difference in biological activity

— patent publication US20180112193A1, “CSF1 THERAPEUTICS” (University Court Of The University Of Edinburgh, priority 2013, published 2018)
